Test results from US20120141376A1, “PROSTATE SPECIFIC TRANSCRIPTS AND THE USE THEREOF FOR PROSTATE CANCER THERAPEUTICS AND DIAGNOSTICS” (priority 2006, published 2012).

Experiments:
[1] = system: PSMA messenger RNA (mRNA); conditions: LNCaP prostate cancer cell line after exposure; cited from earlier work
[2] = system: HLA class I (e.g. HLA-A2) expressing adherent 293T cells; assay: CTL assay on reverse transfected microarray (caspase activation, fluorescent Z-VAD); format: cell-based, human; conditions: HLA-matched CD8+ T cells from prostate cancer patients incubated 4 hours on array; red fluorescent signal = positive response
Description: Additional patient samples were procured for the cytotoxic T Lymphocyte (CTL) assay. […] (PBMC) were isolated from blood drawn from patients with relevant clinical parameters, and with patient consent. Clinical data generally included patent history, physiopathology, and parameters relating to prostate cancer physiology. PBMCs were collected from 6 prostate cancer patients that met the study requirements. Duplicate samples were obtained from a single patient.
The 192 selected DATAS fragments were PCR amplified out of the library vector and directionally cloned into a eukaryotic expression vector down stream from staggered start site initiation codons. This configuration allows the DATAS fragment to be expressed in all the open reading frames, which is required because the correct reading frame is not always readily apparent.
Plasmid preparations were performed and the expression vectors containing the selcted DATAS fragment clones were re-arrayed into 96 well plates, which were subsequently used to spot glass slides for use in the CTL assay previously disclosed in International Patent Application No. PTC/US2005/032392, the disclosure of which is incorporated by reference in its entirety.
A design file containing the desired microarray positions of the DATAS expression vectors was uploaded into a high resolution scanner. The expression vectors containing the DATAS fragments were mixed with gelatin and lipofectamine and then spotted in duplicate in a pattern that matched the design file uploaded into the high resolution microarray scanner. The following positive controls, negative controls and experimental samples were spotted on the array.
The spotted arrays were then overlaid with HLA class I (e.g. HLA-A2) expressing adherent 293T cells and cultured for 48-72 hours to allow cells time to express vector-encoded transcripts.
The assay for CTL reactivity was then performed by incubating HLA-matched CD8^+ T cells from normal and prostate cancer patients on cultured reverse transfected microarray slides for 4 hours. Prior to incubation with the array, T cells from normals or patients may need to be expanded in vitro, to a small or large extent, to enhance the frequency of responding T cells. An inhibitor of activated caspase, fluorescence-tagged (sulfo-Rhodamine)-Z-VAD, is present throughout the cell incubation to bind caspases that become activated when antigen expressing adherent cells on certain spots are induced to die by the CTL. The slides are then washed to remove unbound fluorescent Z-VAD and 2-color (Green and Red) fluorescence images of the microarray slides are obtained with the microarray scanner.
Analysis and confirmation of data is then determined by visual inspection of the scanned image. The success of the reverse transfection is evaluated by observing green fluorescence at EGFP vector control spots. Then the fluorescence threshold(s) are adjusted on microarray scanner as necessary to establish relevant background and positive control signal intensities. […] Using the coordinate locations for the spots, the cDNAs yielding positive responses are identified.

For C[C@]12CCC(=O)C[C@@H]1CC[C@@H]1[C@@H]2CC[C@]2(C)[C@@H](O)CC[C@@H]12 [5-alpha-dihydroxytestosterone], the “PSMA messenger RNA (mRNA) down-regulated” value [1] is listed as 8-10 fold.

B1: No. 1: DATAS fragment; chromosome 14 open reading frame 122; exon extension (nucleic acid, listed as Homo sapiens)
DNA: CTACCGGGGGAAGGGTCAAAGAGCGTGCCGAAGCGCTGGAGGGAGCTTCACGGACGCGAGCTAGGCACCGGCTCGCCTAATCCGGTACTAATCCGGCTTGCTGCTTCCCGTCCAGGCCTCGCTCGCCATGGGGGAGGTGGAGATCTCGGCCCTGGCCTACGTGAAGATGTGCCTGCATGCTGCCCGGTACCCACACGCCGCAGTCAACGGGCTGTTTTTGGCGCCAGCGCCGCGGTCTGGAGAATGCCTGTGCCTCACCGACTGTGTGCCCCTCTTCCACAGCCACCTGGACCTGTCCGTCATGTTGGAGGTCGCCCTCAACCAGGTGCCTCCGTTGCAT
With B1 the “Patient ID with positive hit” value [2] was “EYGRT”.

B2: No. 2: DATAS fragment; melanoma assoc. antigen (mutated) 1; exon extension (nucleic acid, listed as Homo sapiens)
DNA: GGCTCAGGGGGCACGTTTGCGTTTGGACCTGTCTGCGCGTTCTCCTGCGTGGCAGTCCTGATTTCCATACTTCTGGAGAATCCATTTCGTTAACACTGAAAGCCAGTTCTCTTTTCCTGGCAGTTTTTTTCATTTTATTTTTGGCATTTTTTACAAGATACCGTTCGGGAAAGGCTTTTGAAAGGACGGAAGCGTATTCACTGTGCGCCAGTACTCCTGGCTGTGCTGTGGTTTCTCCCGACGTGCACATCGATCTCGTATGTGTGGCATCTGATATTAAACGGGAGGTTTTAAGAAGCGTCTGCCGTGATCATGGAGCTTCGGAAGCGGGAATGGTTCTTCCGGGTTTGCTGTTTTGTCTGTTTCCCCCTTGTGTGGTTTCCGCCTGCGACAGTTCCAGAATTTGCTCTCCCACTCAGTGTGCTCTGCAGCTG
With B2 the “Patient ID with positive hit” value [2] was “EYGRT; MSMPB”.

B3: No. 3: DATAS fragment; aminoacylase 1; exon extension (nucleic acid, listed as Homo sapiens)
DNA: CCAGGCAGCTGGCGAGGGGGTCACCCTAGAGTTTGCTCAGGTATGGACTTGGGACATGTGATGGGAGAGTGTGGGAGCCGGGGGAGACCCAAGTGTGCAACAGTGGAGTGTGTGCTTGGTGTGTCTGCATATGTCTGGGCATTTCTTTATCTGTGACAGACACATTTTATTCCAACAAGCATTCATTGTAGAGGCCACTGTGGGTGCTGGGGAATGCTGTGGGGAGTAAAATTAGGCACAGTTCATGCCCTTGTATGGTGAAACGGGGAGATATAAATCAAACATTTATGTGATATTACTTTTTTCTGAGAGAATCTCACTCCGTCAC
For B3, the “Patient ID with positive hit” value [2] was “MSMPB”.

B4: No. 21: DATAS fragment; GenBank human mRNA AK123820; exon extension (nucleic acid, listed as Homo sapiens)
DNA: GGCGGCAGGTCTAATCTGGCACACTTGCTAACTTCTAATAAAGAATCAAATGGTCTTCCAACTCACATAATGACTAATTCTAAAGCATGCAACCTCAAAGTACTACATTCTCCCTGTTCTAGAAATACAACCCTAGAGGGCCAGTCTTCCTTCAGCATTCAAATATTGAGTAGAACAACTGAACTGTAAGGTTCAACTAAAGGAATGCAACTGTGACTTGAGCTGTGGAACGGCTATGGCCTAAGTCAAGAATTCTCAACCTCCCAC
With B4 the “Patient ID with positive hit” value [2] was “EYGRT”.
